Data as given in publication PMC3648548.

Biological target: GLIC NQN mutant (D91N, E177Q, D178N), pentameric ligand-gated ion channel from Gloeobacter violaceus (Gloeobacter violaceus)
Test: crystal structure; GLIC-NQN mutant in 0.01% (w/v) n-tetradecyl-β-D-maltoside, ~10 mg/ml; crystallization conditions as for GLIC and GLIC-ketamine; molecular replacement with 4F8H; five subunits in the asymmetric unit

stoichiometry N: 5
Substance: GLIC NQN mutant (D91N, E177Q, D178N), pentameric ligand-gated ion channel from Gloeobacter violaceus (natural protein)
